Measured values as given in patent US20260274983A1 (MODERNATX, published 2026).

T1: CD38 (UniProt P28907 1-300, limits assumed)
T1 construct: whole, on cells; also called CD38 on RPMI8226 cells; CD38 on H929 cells
T1 sequence (looked up): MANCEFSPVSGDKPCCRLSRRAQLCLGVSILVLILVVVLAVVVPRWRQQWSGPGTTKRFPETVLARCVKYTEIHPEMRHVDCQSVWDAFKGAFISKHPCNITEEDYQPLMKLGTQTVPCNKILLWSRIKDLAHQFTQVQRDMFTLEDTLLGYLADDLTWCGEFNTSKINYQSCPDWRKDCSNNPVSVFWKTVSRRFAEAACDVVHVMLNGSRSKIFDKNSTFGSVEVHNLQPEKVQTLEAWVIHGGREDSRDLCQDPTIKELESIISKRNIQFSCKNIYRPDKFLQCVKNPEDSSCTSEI

T2: human BCMA (human, UniProt Q02223 1-184)
T2 construct: whole, on cells; Human is stated only for CHO-HuBCMA; also called HuBCMA; B-cell maturation antigen
T2 sequence (looked up): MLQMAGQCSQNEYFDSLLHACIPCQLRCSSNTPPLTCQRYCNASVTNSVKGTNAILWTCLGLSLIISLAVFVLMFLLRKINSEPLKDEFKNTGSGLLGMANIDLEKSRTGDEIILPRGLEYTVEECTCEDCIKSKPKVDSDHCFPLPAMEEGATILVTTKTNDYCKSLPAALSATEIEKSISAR


Assays:
CD38 [1] = target: T1, CD38; experiment: FACS on H929 cells, VHH-His
CD38 [2] = target: T1, CD38; experiment: FACS on RPMI8226 cells, VHH-His
human BCMA = target: T2, human BCMA; experiment: FACS on H929 cells, Fc formatted

Binder | EC50 (CD38 [1]) [nM] | EC50 (CD38 [2]) [nM] | EC50 (human BCMA) [nM]
CD38-VHH1 (VHH) VHH: QVQLVESGGGLVQPGDSLRLSCAASGFILDTYSVAWFRQAPGKEREGVSCISSRDGNTFYSDSVKGRFTISRDNAKNTVYLQMNSLKSEDTAVYTCAAGAQAHCTIFTSYFNSDYYRRYNYWGQGTQVTVSS | 4.43 | < 1 | 
CD38-VHH2 (VHH) VHH: QVQLVESGGGLVQPGGSLRLSCAASGFIFSDKVMSWVRQAPGKGREWVSTITPGGTATSYTESVKGRFTISRDNAKNTLYLQMNNLKPDDTALYYCRIGGPGGRYDNWGQGTQVTVSS | 6.14 | 1.01 | 
CD38-VHH3 (VHH) VHH: QVQLVESGGGLVQAGGSLTLSCAASRSIFEINTMTMGWYRQAPGKQRELIAASRGATTNYADSVKGRFTISRDNAKNTVYLQMNSLKPEDTAVYYCSADRYGFGYGDNDYWGQGTQVTVSS | 1.36 | 0.35 | 
BCMA-VHH1 (Fc fusion, not shown: Fc of the Fc formatted construct) AVQLVDSGGGLVTAGDSLTLSCVASGRTLSPYTAGWFRQAPGREREFVALITARGDWTSYSDSVKGRFTISRDNAKNTIYLQMNSLEPEDTALYYCVRDLLGRDDYWGQGTQVTVSS |  |  | 78
BCMA-VHH3 (Fc fusion, not shown: Fc of the Fc formatted construct) QVQLVESGGGLVQAGGSLRLSCAASGSIFAYHVMGWYRQAPGKQRELVALITSGGSTNYTDSVKGRFTISRDNAKNTVYLQMNSLKPEDTAVYYCAIGYYSGSYYWERSGDYWGQGTQVTVSS |  |  | 11
BCMA-VHH7 (Fc fusion, not shown: Fc of the Fc formatted construct) EVQLVDSGGGLVQAGGSLRLSCAASGSTFSRYAMGWIRQAPGKEREFVAAISWSGGSTYYADSVKGRFTISRDVAKNTVSLQMNSLKPEDAGVYFCFGDIIRSGERSDYEYWGQGTRVTVTS |  |  | 268
BCMA-VHH9 (Fc fusion, not shown: Fc of the Fc formatted construct) QVKLEESGGGFVQPGGSLRLSCAASGFTYSSYWMHWVRQAPGKGLEWVSGISTGGDTTDTYYADSVKGRFTISRDNAKNTLYLQMNSLKPEDTAVYYCVALNLWGTDLEHDYWGRGTQVTVSS |  |  | 43.4
BCMA-VHH11 (Fc fusion, not shown: Fc of the Fc formatted construct) QVQLVDSGGGLVQPGGSLRLSCAASGFTFSSYWMYWVRQAPGKGLEWVSAINTDGDSTYYADSVKGRFTVSRDVAGNMIYLQMTNLKPEDTAVYTCAAIVTRSDGHQYDYWGRGTQVTVSV |  |  | 45.9
BCMA-VHH13 (Fc fusion, not shown: Fc of the Fc formatted construct) QVQLVDSGGRLVQAGDSLRLSCSASGFTFGSYWMFWVRQAPGKGLEWVSAIDTSGGHVYYGDSVNGRFTISRDNAKNTLYLQMNSLKPEDTALYYCARVENTWESIYWGQGTTVTVSS |  |  | 15.5
BCMA-VHH16 (Fc fusion, not shown: Fc of the Fc formatted construct) QVKLEESGGGLVQAGGSLRLSCAASGHTFSNSAMGWIRQAPGKEREFVAAISLNGGNTHYAESVKGRFAISRDNAKNTMYLQMNSLKPEDTAVYYCATLGFASWGQGTQVTVSS |  |  | 41.8
BCMA-VHH17 (Fc fusion, not shown: Fc of the Fc formatted construct) QVQLVESGGGLVQAGGSLRLSCAASGRTFSGYTMAWFRQAPGSEREFVAAAVGSDGSTYYVDSVKGRFTMSRDSAKNTVYLMMTSLQPVDSAVYFCVKLDSGAWSLAEWGQGTQVTVSS |  |  | 1.01
BCMA-VHH20 (Fc fusion, not shown: Fc of the Fc formatted construct) QVQLVESGGGLVQPGGSLRLSCAASGFTFSNYAMIWVRQAPGKGLEWVSSINANSDTTAYSDSVKGRFAISRDNARNTLYLQMNSLKPEDTAVYFCVSDSYIGGLYATYVYWGQGTQVTVSS |  |  | 83.4
CD38-VHH5 (VHH) VHH: QVQLVESGGGLVQTGGSLRLSCVASGAIVSAESMGWYRQAPGNQRELVAEIISGSKSNYGESVKGRFTISRDNAENTVYLQMNSVKPEDTAVYYCKRTERIWTNNPQVYWGQGTQVTVSS |  | 71.3 | 
